Assay: yeast display, Sf9 membrane polyspecificity reagent, FACS + sequencing; frameworks hold sequencing errors
Summary of the method: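 Synthetic nanobody libraries on Saccharomyces cerevisiae BJ5465 were galactose-induced for 36–48 hours, stained 1 hour at 4 °C with 10% biotinylated, detergent-solubilized Sf9 membrane reagent and enriched on streptavidin microbeads. FACS then separated cells into low and high (top ~1%) gates by anti-HA (expression) and streptavidin (reagent binding) fluorescence. Genes were colony-PCR amplified, MiSeq 2 × 250 sequenced and CDR-length filtered. A clone's polyreactivity label is that of its gate of origin.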

Row | Sequence | polyreactivity (PSR sort gate)
1 | QVQLVESGGGLVQAGGRLRLTCAASGFTFGRYAMGWYRQAPGKERDLVADITSGSGGTYYADSVKGRFTISRATAKNSVYLQMNSLKPEDTAVYYCATGSRSRGALRYAHFDFWGQGTQVSVSS | high polyreactivity
2 | QVQLVESGGGLVQAGGRLRLTCAASGSIFLEYTMGWSRQAPGKEREVVASISWGGGSTYYADSVKGRFTISRDNAKNTVYLQMNSLKPEDTAVYYCAAVTKLSGIRYNYWGQGTQVTVSS | low polyreactivity
3 | QVQLVESGGGLVQAGGRLRLTCAASGSIFPTYDLGWYRQAPGKERELVAAIRGDGSTNYADSVKGRFTISRDNAKNTVYVQMNSLKPEDTAVSYCAAVSSEYVFRYGGYWGQGTQVTVSS | low polyreactivity
4 | QVQLVESGGGLVQAGGRLSLSCAASGSTFAYYAMGWYRQAPGKERELVAGITWTGGSTYYADSVKGRFTNSRDNAKNTVYLQMNSLKPEDTAVYYCAVTYPYGYEYDHWGQGTQVTVSS | low polyreactivity
5 | QVQLVESGGGLVQAGGSGRLSCAASGITCAYYAMGWYRQAAGKERELVAVITSGGRPNYADSVKGRVTISRDNAKNTVYLQMNSLKPEDTAVYYCAAYRSSKTLRRGYYYWGQGTQVTGSS | high polyreactivity
6 | QVQLVESGGGLVQAGGSHRISCAASGLTFFRNAMGWYRQAPGKERELVATITSTSSTNYADSVKGRFTISRDNAKNKVYLQMYSVKPEDTAVYYCNARVYYKYVGRMYYWGQGTQVTVSS | high polyreactivity
7 | QVQLVESGGGLVQAGGSHRISCAASGRTFARYVMGWYRQAPGKERELVAAISRSGGTYYADSVKGRFTISRDNAKNTVYLQMNSLKPEDTAVYYCRIPSHGGVYWGQGTQVTVSS | high polyreactivity
8 | QVQLVESGGGLVQAGGSHRLRCAASGLIIGDYGMGWYRQAPGKERELVAAITDRGGTTYYADSVKGRFTISRDNAKNTVYFQMNSLKPEDTAVYYCIARQSDIFDYDYWGQGSQVTVSS | low polyreactivity
9 | QVQLVESGGGLVQAGGSHRLSCAASGFIFSYYAKGRYRQAPGKERELVAAISSSGGTTYADSVKGRFTISRDNAKNTVYLHMNSLKPEDTAVYYCARVQYWFYKPMYYWGQGTQVTVSS | high polyreactivity
10 | QVQLVESGGGLVQAGGSHRLSCAASGFIFSYYAMGWYRQAPGKERELVAAITDSGGSTYYADSVKGRFTISRDNAKNTVYLQMNSLKPEDTAVYYCAATYWWAYVWAYSHVKSTNDYWGQGTQVTVSS | low polyreactivity
11 | QVQLVESGGGLVQAGGSHRLSCAASGFTFYRYAMGSYRQAPGKERELVAAITGGGSTYYADSVKGRFTISRDNAKNTVYLQMNSLKPVDTAVYYCNAYHIVIYDYWGQGTQVTVSS | low polyreactivity
12 | QVQLVESGGGLVQAGGSHRLSCAASGFTINFYSMGWYRQAPGKERELVAAITASGGGSTYYADSVKGRFTISRDNAKNTVYLQMNSLKPEDTAVYYCNADYTGSFYTYDYWGQGTQVTVSS | low polyreactivity
13 | QVQLVESGGGLVQAGGSHRLSCAASGGTFDDYALGWYRQAPGKERELVAAISSSGGSTYYADSVKGRFTISRDNAKNTVYLQMNSLKPEDTAVYYCAVDAYWRLWYYPYESHHDYWGQGTQVTVSS | low polyreactivity
14 | QVQLVESGGGLVQAGGSHRLSCAASGITFNVYAMGWYRQATGKERELVAAISYNGGRTYYADSVKGRFTISRDNAKNTVYLQMNSLKPEDTAVYYCNTVSLSLRYDYWGQGTQVTVSS | high polyreactivity
15 | QVQLVESGGGLVQAGGSHRLSCAASGLTFDHYAMGWYRQAPGKERELVAAISRTGTRTYYADSVKERFTISRDNAKNTVYLQMNSLKPEDTAVYYCNAGTYWQGDSYDYWGQGTQVTVSS | low polyreactivity
16 | QVQLVESGGGLVQAGGSHRLSCAASGRIFVYYPRGWYRQAPGIETELVAAINAGRSTNYADSVKGRFTNSRDNAKNNVYLQMNSLKLQDTAVYFCAAVRRSRYSYRGYYWGQGTQVTVSS | high polyreactivity
17 | QVQLVESGGGLVQAGGSHRLSCAASGRIIGYNPMGWYRQAPGKERELVASIRYSGGSTYYADSVKGRFTISRDNAKNPVYLQMNSLKPEDTAVYYCATRVTYRRRFDYWGQGTQVTVSS | high polyreactivity
18 | QVQLVESGGGLVQAGGSHRLSCAASGRIYGDYAMGWYRQAPGKERELVAAINSSGTSTIYADSVKGRFTISRDNAKNTVYLQLNCLKPEDTAVYYCADLFTFKYDYWGQGTQVTVSS | low polyreactivity
19 | QVQLVESGGGLVQAGGSHRLSCAASGRLFSWNAMGWYRQAPGTERELVAAITNGGGTYYADSVKGRFTISRDNAKNTVYLQMNSLKPEDTAVYYCNAYRRKLWYPTGLYWGQGTQVTVSS | high polyreactivity
20 | QVQLVESGGGLVQAGGSHRLSCAASGRTFEYNAMGWYRQAPGKERELVATITRASTNYADSVKGRFTISRDNAKNTVYLQMNSLKPEDTAVYYCNARARGRRYPYSKYYYWGQGTQVTVSS | high polyreactivity
21 | QVQLVESGGGLVQAGGSHRLSCAASGRTFEYNGKGWYRQAPGKERELVAAITRGGSTYYADSVKGRFTISRDNAKNTVYLQMNSLKPEDTAVYYCAAEVGWSRYKWLEYWGQGTQVTVSS | low polyreactivity
22 | QVQLVESGGGLVQAGGSHRLSCAASGRTFPGNAMGWYRQAPGKERDLVAAITSSGDTDYADSVKGRFKISRDNAKNTVDLQMNSLKTEDRAVYYCAKGYSYGRPWDIYYYWGHGTQVTVSS | low polyreactivity

Row | Sequence | polyreactivity (PSR sort gate)
23 | QVQLVESGGGLVQAGGSHRLSCAASGRTFPGNAMGWYRQAPGKERELVAAISWSGTRTYYADSVKGRFTISRDNAKNTVYLQMNSLKPEDTAVYYCNVVVKGAWDYYPYDYWGQGTQVTVSS | high polyreactivity
24 | QVQLVESGGGLVQAGGSHRLSCAASGSIFIRYAMGWYRQAPAKERELVASITSGGSTYYADSVKGRFTISRDNEKNTVYLQMNSLKPEDTSVYYCNALPYRYRRYDYWGQGTQVTVSS | low polyreactivity
25 | QVQLVESGGGLVQAGGSHRLSCAASGSIFYPYPMGLYRQAPGKERELVAAITTRDDSTRYADSVKGRFTISRDNAKNTGYLQMNTLKPEDTAVYYCNTDYGPVFGQYYWYELDYWGQGTQVNVSS | low polyreactivity
26 | QVQLVESGGGLVQAGGSHRLSCAASGSTFAGNAMGWYRQAPGKERELVAAISGSGGITYYADSVKGRFTISRDNAKNTVYLQMNSLKPEDTAVYYCNAYYWFSRYGYWGQGTQVTVSS | high polyreactivity
27 | QVQLVESGGGLVQAGGSHRLSCAASGSTFDYYAMGWYRQAPGKERELVAAITFSGDRTYYADSVKGRFTISRDNAKNTVYLQMNSLKPEDTAVYYCAARWFVYRYIFDYWGQGTQVTVSS | high polyreactivity
28 | QVQLVESGGGLVQAGGSHRLSCAASGSTFKDYAMVWYRQAPGKERELVASITESGGSTYYADSVKGRFTISRDNAKNTVYLQMNSLNPEDTAVYYCATDLIPEGSGYDYWGQGTQVTVSS | low polyreactivity
29 | QVQLVESGGGLVQAGGSHRLSCAASGSTFSYNTMGWYRQAPGKERELVAAIRSGGSTYYADSVKGRFTISRDNAKNTVYLQMNSLKPEDTAVYYCATDKFHRKVLHWYDYWGQGTQVTVSS | low polyreactivity
30 | QVQLVESGGGLVQAGGSHRLSCAASGSTFTGYAMACYRQAPGKEREFVAGNTGSGGSTYYADSVKGRFTISRDIAKNSVYFQMISLKPEDTAVYYCAASFWYHYVWLDYYWGQGTQVTVSS | low polyreactivity
31 | QVQLVESGGGLVQAGGSHRLSCAATGNTFHTNAIGWYRQAPGKERELVAAITGGGSTYYADSVKGRFTISRDNAKNTVYLQMNSLKPEDTAVYYCNTDVPYGLDVSDTIDYYYWGQGTQVTVSS | low polyreactivity
32 | QVQLVESGGGLVQAGGSHRLSCAAYGSIFATNAMGWYRQAPGKERELVASISYSVSRTYYADSVKGRFTISRDNSMNTVYLQMNSMKPEDTAFYYSAVRQVNWFGIGYEDDYWGQGTQVTVSS | low polyreactivity
33 | QVQLVESGGGLVQAGGSHRLSCADSGSIFWYNAMGWYRQAPGKEREFVATITWSGDSTYYADSVKGRFTISRDNAKNTVYLQMNSLKPEDTAVYYCAALLDYSVADLYSHHVSRYYYWGQGTQVTVSS | low polyreactivity
34 | QVQLVESGGGLVQAGGSHRLSCDASGRTFWVNAMGWYRQAPGKERELVATIRGSGVSTYYADSVNGRFTISRDNAKNTVYLKMNSLKPVDTAVYYCATTYHRVGLQYTFDYLGQGTQVTVSS | low polyreactivity
35 | QVQLVESGGGLVQAGGSHRLSCDASGRTFYRNAMGWYRQAPGKERELVAGISSRGGSTYYADSVKGRFTISRDNAKNTVYLQMISLKPEDTAVYYCAATSSPYSIYNSWGQGTQVTVSS | high polyreactivity
36 | QVQLVESGGGLVQAGGSHRLSCSASGITFYYYAMGWYRQAPGKERELVAAISRSGGRTYYADSVKGRFTISRDNAKNTVYLQMNSLKPEDTAVYYCAAVRYQGGDSSIEYDYWGQGTQVTVSW | high polyreactivity
37 | QVQLVESGGGLVQAGGSHRLTCAASGSTFRRYARGWYRQAPGKERELVATISSGRRTNYADSVKGRFTISRDNAKNTVYLQMNSLKPEDTAVYYCAAAYWSSRADTVIKRYYWGQGTQVTVSS | high polyreactivity
38 | QVQLVESGGGLVQAGGSIRISCAASGITFIDYTMGWYRQAPGKERELVAVITKTGYRTYYADSVKGRFTISRDNANNSDYLQMNSLNRSDSAVYYCNALYYIHYYEGYGYWGQGTQVTVSS | high polyreactivity
39 | QVQLVESGGGLVQAGGSIRLRCAASGGIFSVYAMGWYIQAPGKERELVASISLSGGSTSYADSVKGRFTISRDNAKNTVYLQMNSLKPEDTAVYYCNTDFGQAHTLSWYEDMDYWGQGTQVTVSS | low polyreactivity
40 | QVQLVESGGGLVQAGGSIRLSCAASGFTFDAYAMGWYRQAPGKESELVAAITTSGGNTNYADSVKGRFTISRDNAKNTVYLQMNSLKPEDTAVYYCASDAAVEYGKISYDYWGQGTQVTVSS | low polyreactivity
41 | QVQLVESGGGLVQAGGSIRLSCAASGFTFRRNAMGWSRQAPGKERELVAAITSSGASTYYADSVKGRFTISRDNAKNTVYLQMNSLKPEDTAVYYCAARQTYYKYGYWGQGTQVTVSS | high polyreactivity
42 | QVQLVESGGGLVQAGGSIRLSCAASGIIFYYYAMGWYRQAPGKERELVAGISYSGGSTYADSVKGRFTISRDNAKNTVYLQMNSLKPEDTAVYYCAADYDYGGHWYDYWGQGTQVTVSS | low polyreactivity
43 | QVQLVESGGGLVQAGGSIRLSCAASGRIFARYAMGWYRQAPGTERELVASITVSGDNTYYADSVKGRFTISRDNAKKTVYLQMNSLKPEDTAVYYCAVRAVVLFGFFEYDYWGQGTQVTVSS | low polyreactivity
